Laboratory results: the supplement of paper PMC10724198
± gives the standard deviation of the averaged measurements.

Legend:
Saccharomyces cerevisiae [1] = assay: protein stability index of tFT-peptide fusion in deletion strain of DAS1 (PSI (0-1 scale)); higher = more stable (slower turnover)
Method: (§1)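 MPS profiling in S. cerevisiae of two library types built from selected 12-aa C-degron peptides (IN1, IN2, LN1, LN3, VN2, R1-R5, W1-W3, Atg1 and Rpa12 C-termini): saturation mutagenesis libraries and C-terminal +1 capping libraries (13 aa). Each peptide is fused to the C-terminus of a sfGFP-mCherry timer, after a GGGS linker. Cells are FACS-sorted into 8 mCherry/sfGFP bins and sequenced. PSI runs from 0 (unstable) to 1 (stable), measured once in wild type and in the das1Δ or doa10Δ background.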

Saccharomyces cerevisiae [2] = assay: protein stability index of tFT-peptide fusion in wild type (PSI (0-1 scale)); higher = more stable (slower turnover); settings: genetic background: wild type
Method: as §1

Saccharomyces cerevisiae [3] = assay: protein stability index of tFT-peptide fusion (C-terminal peptide) (PSI (0-1 scale)); higher = more stable (slower turnover); settings: temperature: 30 C
Method: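 MPS profiling in S. cerevisiae of the yeast C-terminome library: the last 12 aa of each annotated ORF are fused to the C-terminus of a sfGFP-mCherry timer, after a GGGS linker. Cells are FACS-sorted into 8 mCherry/sfGFP bins and deep-sequenced. PSI runs from 0 (unstable) to 1 (stable); wild type and das1Δ backgrounds, two technical replicates each.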

[4] = genetic background: das1 deletion
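For protein stability index of tFT-peptide fusion in deletion strain of DAS1 in this document: PSI is a weighted mean of each variant's read distribution over the sorted stability bins, computed only for variants having over 10 reads in total.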
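For protein stability index of tFT-peptide fusion in wild type in this document: PSI derived as read-weighted mean over the 8 sorting bins, only variants exceeding 10 total reads kept, mCherry placed adjacent to the peptide and sfGFP distal.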

| Sequence | protein stability index (Saccharomyces cerevisiae [1]) | protein stability index (Saccharomyces cerevisiae [2]) | protein stability index (Saccharomyces cerevisiae [3]; [4]) | protein stability index (Saccharomyces cerevisiae [3]; genetic background: wild type) |
| --- | --- | --- | --- | --- |
| LVVYLSCVACINE | 0.0324 | 0.0198 | – | – |
| FSMRWTFRYKVN | 0.691 | 0.0899 | – | – |
| ARCRVGLWRGAS | 0.706 | 0.597 | – | – |
| FSMFWTFRYWVN | 0.403 | 0.0733 | – | – |
| VRGAVGGWSLVG | 0.689 | 0.633 | – | – |
| LVVYLSCVACFN | 0.076 | 0.0281 | – | – |
| VKHKKGQKQKIN | 0.716 | 0.105 | – | – |
| RLIQPGPVQFLN | 0.611 | 0.102 | – | – |
| PSLAASFWRVVGW | 0.699 | 0.714 | – | – |
| ARWRYGLWRGAS | 0.678 | 0.489 | – | – |
| KKHKIGQKQKIN | 0.563 | 0.142 | – | – |
| LKILRQKMNHQNN | 0.671 | 0.585 | – | – |
| ARWRVGEWRGAS | 0.684 | 0.677 | – | – |
| GDKRNHLIKLLN | 0.613 | 0.158 | – | – |
| NTSCGYKFRTNN | 0.68 | 0.217 | – | – |
| KKHKKGIKQKIN | 0.588 | 0.0645 | – | – |
| LVVYLSCVACYN | 0.0338 | 0.0154 | – | – |
| RLIQPLPVHFLN | 0.587 | 0.0347 | – | – |
| PSLATSFWRVVG | 0.687 | 0.158 | – | – |
| LKILRQKMNHQNE | 0.656 | 0.652 | – | – |
| VKILRQKMNHQN | 0.67 | 0.174 | – | – |
| LKILSQKMNHQN | 0.681 | 0.232 | – | – |
| FSMRWTFRAWVN | 0.425 | 0.104 | – | – |
| ARWRVGLWCGAS | 0.561 | 0.567 | – | – |

| Sequence | protein stability index (Saccharomyces cerevisiae [1]) | protein stability index (Saccharomyces cerevisiae [2]) | protein stability index (Saccharomyces cerevisiae [3]; [4]) | protein stability index (Saccharomyces cerevisiae [3]; genetic background: wild type) |
| --- | --- | --- | --- | --- |
| HLIQPLPVQFLN | 0.713 | 0.13 | – | – |
| VLGAVGGWRLVG | 0.673 | 0.133 | – | – |
| ARWRVGLWWGAS | 0.679 | 0.556 | – | – |
| PFLAASFWRVVG | 0.693 | 0.154 | – | – |
| CTSCGYKFRTNP | 0.701 | 0.689 | – | – |
| RLIQPVPVQFLN | 0.583 | 0.123 | – | – |
| SKILRQKMNHQN | 0.677 | 0.153 | – | – |
| PSLAASFWMVVG | 0.637 | 0.525 | – | – |
| LKKLRQKMNHQN | 0.68 | 0.235 | – | – |
| KKHKKGQKLKIN | 0.562 | 0.114 | – | – |
| RLIQPLPVQFLC | 0.566 | 0.0371 | – | – |
| LKILRSKMNHQN | 0.666 | 0.208 | – | – |
| LKNLRQKMNHQN | 0.678 | 0.208 | – | – |
| KKHKKGQKYKIN | 0.634 | 0.199 | – | – |
| LVVYLSCHACIN | 0.0466 | 0.0126 | – | – |
| KKNKKGQKQKIN | 0.598 | 0.141 | – | – |
| RLIQPLPVQFLNW | 0.686 | 0.667 | – | – |
| RLIQPLPVKFLN | 0.584 | 0.184 | – | – |
| KKLKKGQKQKIN | 0.594 | 0.0797 | – | – |
| LVIYLSCVACIN | 0.0377 | 0.0156 | – | – |
| PSLAASFWRVIG | 0.677 | 0.151 | – | – |
| PSLAASFWIVVG | 0.421 | 0.418 | – | – |
| ARQRVGLWRGAS | 0.694 | 0.6 | – | – |
| PDQRNHLIKLLN | 0.585 | 0.136 | – | – |

| Sequence | protein stability index (Saccharomyces cerevisiae [1]) | protein stability index (Saccharomyces cerevisiae [2]) | protein stability index (Saccharomyces cerevisiae [3]; [4]) | protein stability index (Saccharomyces cerevisiae [3]; genetic background: wild type) |
| --- | --- | --- | --- | --- |
| ARWRVGLWRGAL | 0.682 | 0.596 | – | – |
| NSMRWTFRYWVN | 0.598 | 0.0828 | – | – |
| LKILRQKMNHEN | 0.671 | 0.237 | – | – |
| LVVYLSCVAIIN | 0.0381 | 0.0151 | – | – |
| LVFYLSCVACIN | 0.0573 | 0.016 | – | – |
| PSLAASFWRVTG | 0.687 | 0.142 | – | – |
| FSRRWTFRYWVN | 0.636 | 0.0509 | – | – |
| LVNYLSCVACIN | 0.259 | 0.0691 | – | – |
| LVVYLSDVACIN | 0.495 | 0.458 | – | – |
| LVVYLSCRACIN | 0.0311 | 0.0228 | – | – |
| PIKGGDKASSEL [ATG5 C-terminal 12 aa] | – | – | 0.679 ± 0.0085 | 0.6877 ± 0.0045 |
| ESVSYLFTHAPV [PRS2 C-terminal 12 aa] | – | – | 0.734 ± 0.0093 | 0.711 ± 0.023 |
| CGLDGKIVIYTI [ARC40 C-terminal 12 aa] | – | – | 0.6819 ± 0.0035 | 0.6704 ± 0.0027 |
| QGKVRLWKLNHY [UTP18 C-terminal 12 aa] | – | – | 0.7 ± 0.021 | 0.616 ± 0.025 |
| YDYNSKNSRGFY [DEF1 C-terminal 12 aa] | – | – | 0.6999 ± 0.0051 | 0.676 ± 0.033 |
| PILSQEVDRWRL [GAC1 C-terminal 12 aa] | – | – | 0.732 ± 0.011 | 0.744 ± 0.018 |
| EGFIAKVMCCLD [RFC5 C-terminal 12 aa] | – | – | 0.606 ± 0.0065 | 0.599 ± 0.021 |
| ATSILLWYSNYS [CNM1 C-terminal 12 aa] | – | – | 0.739 ± 0.013 | 0.6973 ± 0.00096 |
| VKSLQVKKSHLK [CDC12 C-terminal 12 aa] | – | – | 0.704 ± 0.0088 | 0.742 ± 0.13 |
| QGKAFYDRIKDL [RFS1 C-terminal 12 aa] | – | – | 0.683 ± 0.013 | 0.255 ± 0.025 |
| RVFEFLEKQKRE [MRPL40 C-terminal 12 aa] | – | – | 0.722 ± 0.025 | 0.723 ± 0.028 |
| TIDFFDPVKLKR [YEL025C C-terminal 12 aa] | – | – | 0.724 ± 0.008 | 0.755 ± 0.015 |
| ILKKNPDYREEE [RPN1 C-terminal 12 aa] | – | – | 0.696 ± 0.0054 | 0.7029 ± 0.0058 |
| EKGIFAGDINSD [COX12 C-terminal 12 aa] | – | – | 0.7005 ± 0.0047 | 0.726 ± 0.029 |

| Sequence | protein stability index (Saccharomyces cerevisiae [1]) | protein stability index (Saccharomyces cerevisiae [2]) | protein stability index (Saccharomyces cerevisiae [3]; [4]) | protein stability index (Saccharomyces cerevisiae [3]; genetic background: wild type) |
| --- | --- | --- | --- | --- |
| VLTAGVNSVAIK [RPN11 C-terminal 12 aa] | – | – | 0.6646 ± 0.0021 | 0.63 ± 0.0097 |
| FEVMKFVNGLKV [RFX1 C-terminal 12 aa] | – | – | 0.5484 ± 0.0045 | 0.5872 ± 0.0047 |
| AAMLTSENAREI [RRP45 C-terminal 12 aa] | – | – | 0.707 ± 0.01 | 0.676 ± 0.035 |
| LIDSVKKKVNND [SAC3 C-terminal 12 aa] | – | – | 0.681 ± 0.029 | 0.697 ± 0.069 |
| PARESMLHKEIK [ADE12 C-terminal 12 aa] | – | – | 0.745 ± 0.011 | 0.668 ± 0.011 |
| SQAIPKKKKVLE [MEK1 C-terminal 12 aa] | – | – | 0.6937 ± 0.0011 | 0.6887 ± 0.0063 |
| AARADRGANFRD [SPT16 C-terminal 12 aa] | – | – | 0.677 ± 0.022 | 0.726 ± 0.012 |
| FSIRSISKFIFT [YOR325W C-terminal 12 aa] | – | – | 0.649 ± 0.014 | 0.665 ± 0.051 |
| NDDSKDEDDIIP [MAL33 C-terminal 12 aa] | – | – | 0.6831 ± 0.0019 | 0.731 ± 0.056 |
| RQCEDTNFGFKI [YDL242W C-terminal 12 aa] | – | – | 0.6949 ± 0.0057 | 0.688 ± 0.039 |
| FASGKPIKKVKN [DYS1 C-terminal 12 aa] | – | – | 0.698 ± 0.0083 | 0.706 ± 0.016 |
| KLENESLPNLSG [TRI1 C-terminal 12 aa] | – | – | 0.691 ± 0.013 | 0.685 ± 0.016 |
| EYPWEKPKTLKF [SAM1 C-terminal 12 aa] | – | – | 0.7167 ± 0.00082 | 0.6917 ± 0.0068 |
| HCQPQEILVLRQ [PEX10 C-terminal 12 aa] | – | – | 0.7094 ± 0.0062 | 0.7 ± 0.013 |
| VSNNLIIDEETF [BIM1 C-terminal 12 aa] | – | – | 0.7174 ± 0.0056 | 0.7214 ± 0.0042 |
| SAITKNLLDDFV [RAV1 C-terminal 12 aa] | – | – | 0.735 ± 0.05 | 0.745 ± 0.066 |
| VYDYQYIYKGKQ [SIA1 C-terminal 12 aa] | – | – | 0.701 ± 0.016 | 0.698 ± 0.016 |
| NDTEHVTLHTNT [YDL228C C-terminal 12 aa] | – | – | 0.711 ± 0.0095 | 0.688 ± 0.031 |
| SLSSRGKIFSST [EFR3 C-terminal 12 aa] | – | – | 0.698 ± 0.01 | 0.657 ± 0.011 |
| EANLKVLNGLEI [YPR148C C-terminal 12 aa] | – | – | 0.687 ± 0.024 | 0.667 ± 0.011 |
| SYEIFEGSKKVM [CET1 C-terminal 12 aa] | – | – | 0.699 ± 0.033 | 0.6785 ± 0.0039 |
| KGLQTVVVEEDA [RPL31A C-terminal 12 aa] | – | – | 0.6888 ± 0.0012 | 0.683 ± 0.0082 |
| RRGDMCDVKENI [PUS7 C-terminal 12 aa] | – | – | 0.6678 ± 0.0015 | 0.677 ± 0.031 |
